The values below are quoted from earlier work in PMC6669380.

By Kd is commonly meant the constant that tells how readily two partners part at equilibrium.

For the data set, the target named is SLP-76 RxxK motif (Homo sapiens) (UniProt Q13094).

With “Gads C-terminal SH3 (from UniProt O75791)”, the Kd was 14.5 nM.
